Reference: US11130794B2, “Bifunctional compounds” (Novo Nordisk A/S, priority 2017, dated 2021)

Target: T1, hPCSK9 (Homo sapiens, UniProt Q8NBP7)
T1 construct: purchased Sino Biologicals, China
Test: C6 hPCSK9 challenge model, LDL-R expression in mouse liver (Western blot)
Assay type: in vivo
Details: healthy control 100%, hPCSK9 alone 0%
Method: Sixty minutes after the injection of hPCSK9, the animals are anaesthetised in isoflurane and euthanised by cervical dislocation. The liver is then quickly excised and snapfrozen in liquid nitrogen. The livers are kept at −80° C. until analysis.
The proteins are transferred to nitrocellulose membranes (iBlot 2 NC Regular stacks, novex #IB23001) according to manufacturer's instructions (Life Technology). Equal protein transfer is confirmed by Ponceau S (Sigma, P7170) staining of the membranes and the membranes are further blocked in blocking buffer (TBS-T, 2% Tween). […] Quantitative analysis of chemiluminescent signals from Western blots is done with MultiGauge software (Fujifilm).
The LDL-R expression levels were measured by Western Blot, and the expression levels compared.

T1 sequence (Q8NBP7 153-692): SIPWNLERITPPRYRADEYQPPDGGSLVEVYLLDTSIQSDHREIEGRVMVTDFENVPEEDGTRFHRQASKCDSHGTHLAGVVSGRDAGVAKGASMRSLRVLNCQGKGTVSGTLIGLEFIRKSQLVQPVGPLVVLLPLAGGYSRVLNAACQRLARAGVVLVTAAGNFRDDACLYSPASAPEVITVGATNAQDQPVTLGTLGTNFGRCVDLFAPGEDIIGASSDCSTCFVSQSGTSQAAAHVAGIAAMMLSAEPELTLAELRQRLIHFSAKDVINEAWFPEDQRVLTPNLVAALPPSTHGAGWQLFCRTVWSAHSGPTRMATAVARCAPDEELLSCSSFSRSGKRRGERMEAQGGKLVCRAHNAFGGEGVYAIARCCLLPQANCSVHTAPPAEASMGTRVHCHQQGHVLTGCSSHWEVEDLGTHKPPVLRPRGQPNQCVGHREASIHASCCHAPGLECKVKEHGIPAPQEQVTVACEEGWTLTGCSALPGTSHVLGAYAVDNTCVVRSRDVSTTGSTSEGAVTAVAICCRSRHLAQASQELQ

Percentage of baseline (%) Mean ± SEM (compound 30 nmol/kg): 100 ± 13%
Percentage of baseline (%) (inhibitor 22 nmol/kg): 157%
Substance: Alirocumab: anti-PCSK9 antibody, control molecule in the hPCSK9 challenge model
